Test results reported in the supplement of paper PMC9170038.

Tested on: K4 kissing-loop RNA reporter
Assay: apparent KD of K4 kissing-loop reporter; higher = weaker reporter binding
Settings: Eterna round: R107
Procedure: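 RNA-MaP round R107: designed RNA switches with theophylline, tryptophan, arginine or FMN aptamers are transcribed on-chip within common flanks. They are titrated with a labelled K4 kissing-loop RNA reporter in RNA-MaP buffer (100 mM Tris pH 7.5, 80 mM KCl, 4 mM MgCl2), without ligand or with the indicated ligand. Median apparent KD per design.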

[1] = input ligand: theophylline 20 uM
[2] = input ligand: tryptophan 2.4 mM
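Further: bound reporter read as fluorescence of individual clusters on recovered sequencing chips by microscopy, with normalized cluster intensities fitted with a binding model.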

Sequence	apparent KD of K4 kissing-loop reporter (input ligand: FMN 200 uM)	apparent KD of K4 kissing-loop reporter (input ligand: arginine 13.2 mM)	apparent KD of K4 kissing-loop reporter (input ligand: none)	apparent KD of K4 kissing-loop reporter [1]	apparent KD of K4 kissing-loop reporter [2]
UCUUGCGGCGCAGGAUAUCCGUCUGUCUCCUGCGUCAUUCUGCAGUGAUGUUGCAGGUGACGGAUAGGAGAAGGGCGAACGUACA [Diinonorce]	0.133 µM	0.104 µM	0.124 µM	0.117 µM	0.112 µM
AAGUGUGUGGCGGCCGCCACUAGAAUCCAGUGAUGUUGGAGAUAUCAUGUAAAUGAUAUCCAACAUAGGACCGGGCCAUAUAGAA [Same State - Tryptophan B (Freestyle 10)]	0.126 µM	0.098 µM	0.0924 µM	0.131 µM	0.12 µM
AGAUGGAAUAGAAGGAGCGGCGCCAGUGAUGUUGGAUGCCGCGGGUGAAUCAGAUCAUAGUGCCAGGUAGGUCGCUAUUUCAGCG [Anedin]	0.113 µM	0.101 µM	0.106 µM	0.116 µM	0.112 µM
GCGAUUCAGUGAUGUUGGAAAUACAGGGAUACCAGCCGAGAAUAAGGCCCUUGGCAGCUUAAUAGGAAAGAACUAAGUAAGACGC [Theophylline A Same State; Euphoria Solution 2]	0.574 µM	0.569 µM	0.877 µM	0.616 µM	0.402 µM
AAGUGAUGUUGUAGUGAUGUUGUGAUGUUGCAGGAUAUAUAGUGAUGUAGAAGGGUAUGUGCAGUUUUCUUAUUUGAGUGUUGAU [zwzamullin]	0.0759 µM	0.0332 µM	0.0626 µM	0.0495 µM	0.0613 µM
AAAAUAAAUCAGUGAUGUUGGUAUCCGGAUACCAGCGAUAAUCAUCGCCCUUGGCAGCCGCGGACGUACAAAAUAAGUACGUCCU [MatMod 15 - Jieux - Same State - Theophylline A]	0.282 µM	0.0892 µM	0.218 µM	0.24 µM	0.131 µM
UCAUGUGCCAGUGAUGUUGGCGUACGUGAUACCAGACGAAUAAAAGUCCCUUGGCAGCACAAAUAAGCCAAGAUAGAUGAAUGAU [Exclusion Theophylline A GF 1]	0.13 µM	0.125 µM	0.132 µM	0.137 µM	0.116 µM
AAUAAAAUCACGGCCGCCACUGAUUUCCAUAUUAGGAGUGAUGUUCCUAUGACUAUAUAAUUUAACAGGACCGGGUGAAUAUUUA [JR_ExcTryptoB_Sub012]	0.11 µM	0.112 µM	0.108 µM	0.111 µM	0.0935 µM
AAGUCAUAUAGAAGGAGCGUGUUUUAUAAUUUAUUUUCAUGAUCGAGUGAUGUUCGAUAUACACAGGUAGGUCGCUGUAUAAUAA [hbob_SS_Arginine_B_2t140]	0.114 µM	0.144 µM	0.129 µM	0.133 µM	0.101 µM
UGUGAUGAGUAGAGUGAUGUUUUGAAGGAUACCAGAGUGUUGUUAUUCCCUUGGCAGCUUGAGUGAUGUUUGAUGUUGUUGUAGU [zizmullin]	0.303 µM	0.213 µM	0.248 µM	0.246 µM	0.196 µM
AGCGUCUGAAGAGGAUAUGACCAGUGAUGUUGGUUACUACCUCAAAUUAGUGUCGCGCCAAAAUCGUCAGAAGGCUUCGGCGCGC [Ussoes]	0.135 µM	0.092 µM	0.0986 µM	0.0967 µM	0.0929 µM
AAUAAUGAUGUUUAGGAAAGUAAAAUGGAAGGAGCGUGCGAAAGCACAGGUAGGUCGCCAGUGAUGUUGGAACCUGAGCAUCAAA [#SwitchBubble 19 #K4Late]	0.907 µM	0.633 µM	0.836 µM	0.925 µM	0.757 µM
AACUCUCACUGGAGUGAUGUUCUGGAAAACCGAGGACCGGUACGGCCGCCACUCGGAAAUGAGAGAGUCCUACGAAAAGUAGGAC [Omei inspired 1]	0.191 µM	0.213 µM	0.217 µM	0.255 µM	0.139 µM
CUUUUACAGUCGGCCGCCACUGACAGCACUUCAAAGACAGUAUAAGGGUAGUGAUGUUACUUUAUCAGGACCGGGACUACCUAAC [theeternabot_sameState_KL_Trp_B_3]	0.215 µM	0.121 µM	0.205 µM	0.279 µM	0.358 µM
AUAUGCUUAGCGGCCGCCACUCCAAUUGGCCGAAAGGCCUGAUACCGAGUGAUGUUCGGUUGGAGGAGGACCGGGCUAGGCGUAU [#2 Exclusion - Tryptophan B Attempt #1 (HarryS)]	0.168 µM	0.139 µM	0.169 µM	0.149 µM	0.141 µM
AACCACUCGUUACAUCACUAUCGAGUGGAACGAGGACCGGUACGGCCGCCACUCGAAUAGAUGCAGUGAUGUUGCAUCUUGGAAU [KL-SSTryp-A (BrourdMod)4 #dotplot2 strengthened]	0.181 µM	0.141 µM	0.163 µM	0.156 µM	0.132 µM
AGACCACAAAGUGGUCAGUGUUCGCUCCGGCGAGGACCGGUACGGCCGCCACUCGCGAGUGAUGUUCGCGAGUGGAGCGAACACA [Omei KL Tryp A Exc A v1]	0.0888 µM	0.078 µM	0.0886 µM	0.076 µM	0.0863 µM
AUGUAUGAAUUAGGAUAUCGUGAGCUUUGCAUAUAUAUGAUAAAUGGAUAUGUCGUAGUGAUGUUACGAGAAGGAGUGUGGAGUA [KL-XFMN-B3]	0.0524 µM	0.0557 µM	0.0439 µM	0.0658 µM	0.0374 µM
UUGAUAUGAUAGUAUCCUGUUUGAUAAAGGCAGGAUAUCGAAAAUUCGAGAAGGGCCAUUAUAUGCAGUGAUGUUGCAAAUAAGU [Exclusion FMN A Gf 24]	0.0768 µM	0.0684 µM	0.0526 µM	0.069 µM	0.0436 µM
AAAGUUGCAAGUGAUACCAGACGAGUGAAGGGAAGUAAUUAAUUAGGAGUGAUGUUCCGCGUCCCUUGGCAGCACUUUGUAAUUU [Exclusion Theophylline B GF 25]	0.155 µM	0.165 µM	0.152 µM	0.184 µM	0.115 µM
AACCACUCGUUACAUCACUAUCGAGUGGAACGAGGACCGGUACGGCCGCCACUCGGUAUCUUGCAGUGAUGUUGCAAGAAAGAAU [KL-SSTryp-A #dotplot2 strengthened]	0.212 µM	0.199 µM	0.256 µM	0.164 µM	0.163 µM
CGAGUCCUGAGGAGUGAUGUUCCUCGGCCACGAGGACCGGUACGGCCGCCACUCGUUACUCGGGCUUAGCAGCAAGCACUAAGCU [Acesote]	0.348 µM	0.317 µM	0.334 µM	0.302 µM	0.127 µM

Sequence	apparent KD of K4 kissing-loop reporter (input ligand: FMN 200 uM)	apparent KD of K4 kissing-loop reporter (input ligand: arginine 13.2 mM)	apparent KD of K4 kissing-loop reporter (input ligand: none)	apparent KD of K4 kissing-loop reporter [1]	apparent KD of K4 kissing-loop reporter [2]
GGGAAUUACGGAGGAUAUGCACUGAGGAGGAGAAUAUAGUGAUGUUAUAUAAGAGGAAGGAGAAGAGUAGAAGGCCGUGGAAAGG [SSFMNB.D]	0.226 µM	0.161 µM	0.203 µM	0.217 µM	0.141 µM
AUUGCACCUGCGGCCGCCACUCACUCCGGGCUGCUGGCCAGUGAUGUUGGUACGGCUGCCGGUUAGAGGACCGGGCAGGAGCUAA [Esage]	0.106 µM	0.113 µM	0.107 µM	0.106 µM	0.0913 µM
GCCAGUGAUGUUGGCGAACCAACGCAUGCAGAGGAUAUUCGUUCUGGAAGAAGGCUGCAGCGUUAUCAAACGCAGUGAUGUUGCG [Same State FMN A GF 26]	0.179 µM	0.134 µM	0.15 µM	0.165 µM	0.129 µM
UAACUUGCAGUGAUGUUGCAAGAACUGGAUACCAGCAUGGAAACAUGCCCUUGGCAGCCAGAAGCUGGCUGAACAUCACGUCAGU [Design5]	0.227 µM	0.14 µM	0.308 µM	0.159 µM	0.217 µM
UGUAUGGACUGAAGGAGCGGUAUAUAAACUGAGUGAUGUUCGGCAGAUAAAGGCGCAAGCCACCAGGUAGGUCGCAGUCCAUACU [KL-SSArg B2]	0.453 µM	0.207 µM	0.381 µM	0.39 µM	0.342 µM
GCCGUAGUUGGAAGGAGCGUGAAUGGCCUCUAUCCAAAGUGAUGUUUUGUUGAAGACUGUUCACAGGUAGGUCGCCAACUACGGC [#09 K4 Arginine B Same State]	0.145 µM	0.13 µM	0.133 µM	0.134 µM	0.132 µM
UAUUUAGUGACGGCCGCCACUAUGGUGAUUUAUUUGUUUGAGUGAUGUUUUGAUGUUUGAUUUUGUAGGACCGGGUUAUGUGUUG [yyycmullin]	0.891 µM	0.688 µM	0.818 µM	0.752 µM	0.595 µM
AUAUCGGUUGAGAGUGAUGUUCCUUGUGUUCGAGGACCGGUACGGCCGCCACUCGGGUAGAAAAUAAAAGAUGUGUUUGAUUUUU [BDazzled - #14 SS Tryptophan A]	0.243 µM	0.0915 µM	0.203 µM	0.402 µM	0.221 µM
UGUCAUUGGUCGGCCGCCACUAGAAGGUCAAAGACCAUGGAGUGAUGUUCUAAGACGAAAGUCACUAGGACCGGGACCGAUGACU [TrypBS 5 #SwitchBubble #K4Middle]	1.64 µM	0.689 µM	1.45 µM	0.918 µM	0.575 µM
AAUAAGGUCGCCGAUACCAGCGCAGGCAGAGCAAAGCUCUGCCGGGUAGUGAUGUUACCGCGCCCUUGGCAGCGGUGGCACGACC [Omei KL Theo B SS C v1]	0.579 µM	0.435 µM	0.34 µM	0.398 µM	0.275 µM
AAGUGAUGUUGUAGUGAUGUUGUGAUGUUGCAGGAUAUAUAGUGAUGUAGAAGGGUAUGUGCAGUGUUGUUGUUUGAGUGUUCAU [dttyumullin]	0.0954 µM	0.0418 µM	0.0737 µM	0.0747 µM	0.0684 µM
AGGGUUAAUUAGUCUUUUUUCACAUUAAGUCAGGAUAUCGUAUUUUCGAGAAGGGACACAUGCUAGUGAUGUUAGCUAUUUCCCA [#02 K4 FMN A Exclusion]	0.0773 µM	0.115 µM	0.0906 µM	0.122 µM	0.0862 µM
UAUACUAGACAAGAGAGAAUUCUCUCAAGAGAGGAUAUCCGAAUUCGGAGAAGGCUCUCUAAGUGAUGUUUGGAAUAGUCUAGAA [AK5 SS FMN A]	0.66 µM	0.448 µM	0.737 µM	0.5 µM	0.5 µM
ACCUACCAUUAGUGAUGUUAAUGGACGGAAGGAGCGCGGAUAUCUGCAGGUAGGUCGCCGAAGGCUAGACAUUGUCUAGCCAUUA [AK1 SS Arginine A]	0.149 µM	0.113 µM	0.131 µM	0.107 µM	0.12 µM
GUUACGCAUGGAAGGAGCGCACUCCGAUUGGUCGACACAGUGAUGUUGUGGUUCGUUCGAAUGCAGGUAGGUCGCCAUGUGUAAC [Ex Arginine B K4 18]	0.165 µM	0.143 µM	0.175 µM	0.145 µM	0.149 µM
AAGGUGAUCCUCGAUACCAGCUCAAAAUGAGUGAUGUUCAUGAAAGCCUGGAAACAGGCGAGCCCUUGGCAGCGAGUUACAUCAA [KL-SSTheoB8]	0.204 µM	0.162 µM	0.162 µM	0.134 µM	0.154 µM
AAUACUAUCAGAAGGAGCGUGGAAUAUUCAUCUGUAUCUAAUACGAGUGAUGUUCGUAAUUCACAGGUAGGUCGCUGAUCAAUAA [whbob_Ex_Arginine_B_2th156]	0.246 µM	0.249 µM	0.267 µM	0.269 µM	0.213 µM
GCAGGACGAGGAGGAGGAUGAAUUACUGAAGGAGCGCAUAUUGUUGCAGGUAGGUCGCGGUAAACAAGUAUAGUGAUGUUAUAUC [SSArgA.O]	0.77 µM	0.27 µM	0.877 µM	0.695 µM	0.416 µM
AAGCAGUCACUCGACGCCAUCGAAGAUGGGCGAGGACCGGUACGGCCGCCACUCGGAGUGAUGUUCUGAAGACUGCAAAAUAAAA [MatMod 7 - Jieux - Exclusion - Tryptophan A]	0.235 µM	0.166 µM	0.153 µM	0.115 µM	0.16 µM
CGCAGUGAUGUUGCUAUUAUUCUUGGUUAACGAGGACCGGUACGGCCGCCACUCGAUGUCUGUCUAGUCCAGUGUUUUUUUGAGU [whbob_EX_Tryp_A_t8]	0.351 µM	0.467 µM	0.506 µM	0.579 µM	0.228 µM
GCAGUGAUGUUGCGCGAGUACGGUAGAGUACGAGGACCGGUACGGCCGCCACUCGUACGGAACUGGCUAAUUUAUGGAAUGGUGA [III]	0.254 µM	0.227 µM	0.295 µM	0.27 µM	0.193 µM
